Measured values reported in patent publication US20130337438A1 (JAPAN HEALTH SCIENCES FOUNDATION, published 2013).

T1: HPV35 L1/L2-capsid (human papillomavirus type 35, UniProt P27234 1-469; P27232 1-502)
T1 construct: Capsid of co-expressed L1 and L2 from 293FT cells; The pseudovirus is the same capsid with a reporter plasmid; also called L1/L2-capsid of type 35; HPV35 pseudovirus
T1 sequence 1: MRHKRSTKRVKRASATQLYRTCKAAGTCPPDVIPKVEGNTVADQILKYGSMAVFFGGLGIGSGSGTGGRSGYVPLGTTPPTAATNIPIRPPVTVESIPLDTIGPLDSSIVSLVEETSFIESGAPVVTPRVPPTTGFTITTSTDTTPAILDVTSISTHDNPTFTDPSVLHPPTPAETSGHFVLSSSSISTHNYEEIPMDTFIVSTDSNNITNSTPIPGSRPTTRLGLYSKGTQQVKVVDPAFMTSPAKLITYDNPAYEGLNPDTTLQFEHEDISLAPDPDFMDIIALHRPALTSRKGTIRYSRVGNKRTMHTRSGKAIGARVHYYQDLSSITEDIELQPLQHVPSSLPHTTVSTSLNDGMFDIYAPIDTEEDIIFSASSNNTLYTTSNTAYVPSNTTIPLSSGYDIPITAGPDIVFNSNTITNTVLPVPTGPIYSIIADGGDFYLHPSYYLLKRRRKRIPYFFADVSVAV
T1 sequence 2: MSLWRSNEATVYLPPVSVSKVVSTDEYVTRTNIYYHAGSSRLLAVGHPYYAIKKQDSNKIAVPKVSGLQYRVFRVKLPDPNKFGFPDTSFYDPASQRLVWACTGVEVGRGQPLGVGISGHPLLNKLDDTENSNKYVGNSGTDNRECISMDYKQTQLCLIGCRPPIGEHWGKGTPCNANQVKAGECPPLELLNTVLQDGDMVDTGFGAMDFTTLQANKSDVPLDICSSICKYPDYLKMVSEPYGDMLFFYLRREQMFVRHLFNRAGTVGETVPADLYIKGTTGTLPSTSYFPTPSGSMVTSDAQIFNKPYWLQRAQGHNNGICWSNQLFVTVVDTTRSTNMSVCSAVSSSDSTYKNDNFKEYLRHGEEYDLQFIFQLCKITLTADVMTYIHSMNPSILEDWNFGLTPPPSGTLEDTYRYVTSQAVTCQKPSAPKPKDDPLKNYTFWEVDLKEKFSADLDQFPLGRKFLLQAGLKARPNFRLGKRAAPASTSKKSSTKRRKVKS

T2: HPV51 L1/L2-capsid (human papillomavirus type 51, UniProt P26539 1-468; P26536 1-504)
T2 construct: Capsid of co-expressed L1 and L2 from 293FT cells; The pseudovirus is the same capsid with a reporter plasmid; also called L1/L2-capsid of type 51; HPV51 pseudovirus
T2 sequence 1: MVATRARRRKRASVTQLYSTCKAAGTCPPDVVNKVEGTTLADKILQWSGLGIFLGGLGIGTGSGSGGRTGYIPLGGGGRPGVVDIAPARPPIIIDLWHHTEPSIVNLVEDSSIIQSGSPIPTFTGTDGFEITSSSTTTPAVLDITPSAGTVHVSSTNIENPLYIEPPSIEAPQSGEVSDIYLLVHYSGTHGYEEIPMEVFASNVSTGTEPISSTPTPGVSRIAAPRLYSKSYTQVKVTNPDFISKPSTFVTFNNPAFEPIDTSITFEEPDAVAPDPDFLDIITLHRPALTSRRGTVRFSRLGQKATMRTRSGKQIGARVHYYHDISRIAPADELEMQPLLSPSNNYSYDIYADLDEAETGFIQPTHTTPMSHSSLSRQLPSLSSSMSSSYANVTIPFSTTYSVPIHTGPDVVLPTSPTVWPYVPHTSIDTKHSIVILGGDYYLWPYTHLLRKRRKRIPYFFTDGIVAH
T2 sequence 2: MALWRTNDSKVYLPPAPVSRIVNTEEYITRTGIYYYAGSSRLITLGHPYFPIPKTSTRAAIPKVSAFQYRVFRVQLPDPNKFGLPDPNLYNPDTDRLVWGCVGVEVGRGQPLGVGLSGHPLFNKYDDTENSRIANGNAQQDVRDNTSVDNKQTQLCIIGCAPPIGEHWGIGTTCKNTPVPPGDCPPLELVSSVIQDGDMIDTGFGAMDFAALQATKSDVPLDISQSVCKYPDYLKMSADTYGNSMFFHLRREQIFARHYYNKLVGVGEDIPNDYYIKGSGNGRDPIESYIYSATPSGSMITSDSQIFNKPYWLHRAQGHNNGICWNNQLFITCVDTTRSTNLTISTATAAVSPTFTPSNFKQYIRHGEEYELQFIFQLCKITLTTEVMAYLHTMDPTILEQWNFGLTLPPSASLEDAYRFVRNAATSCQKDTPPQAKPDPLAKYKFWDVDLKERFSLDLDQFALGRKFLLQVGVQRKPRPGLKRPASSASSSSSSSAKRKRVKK

B1: monoclonal antibody 13B (antibody, V domains shown)
VH: DVQLQESGPGLVKPSQSLSLSCTVTGYSITSDSAWNWIRQFPGNKLEWMGYITFSGSTNYNPSLKSRLSITRDTSKNQFFLQLNSVTTEDTATYYCTGPFLDYWGQGTTLTVSS
VL: DVVMTQTPLSLPVSLGDQATISCRSSLSLVLSNRITYLQWYLQKPGQSPKLLIYKVSNRFSGVPDRFSGSGSGTDFTLKISRVEAEDLGVYFCSQSSHFPWTFGGGTKLEIKR
notes: Used as mouse ascites or as antibody purified from ascites; also called Mouse-Mouse hybridoma 13B (FERM BP-11304)
B2: monoclonal antibody 24B (antibody, V domains shown)
VH: EVQLQQSGTVLARPGASVKMSCKASVYSFPSNWMHWVKQRPGQGLEWIGAIYPGTGATRYNQKFKDKAKLTAVTSADTAYMELSSLTDEDSAVYYCTGYSLYWGQGTILTVSS
VL: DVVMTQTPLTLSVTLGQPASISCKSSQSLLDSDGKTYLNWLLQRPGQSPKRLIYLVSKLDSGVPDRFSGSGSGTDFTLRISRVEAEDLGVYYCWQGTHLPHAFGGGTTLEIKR
notes: Used as mouse ascites or as antibody purified from ascites; also called Mouse-Mouse hybridoma 24B (FERM BP-11305)

Assays:
HPV35 L1/L2-capsid [1] = molecular target: T1, HPV35 L1/L2-capsid; experiment: ELISA on immobilized L1/L2-capsid
HPV51 L1/L2-capsid = molecular target: T2, HPV51 L1/L2-capsid; experiment: ELISA on immobilized L1/L2-capsid, ascites 1:100
HPV35 L1/L2-capsid [2] = molecular target: T1, HPV35 L1/L2-capsid; experiment: ELISA on immobilized L1/L2-capsid, ascites 1:100

Binder	binding result (HPV35 L1/L2-capsid [1])	binding result (HPV51 L1/L2-capsid)	binding result (HPV35 L1/L2-capsid [2])
B1	no binding (tested: ascites diluted 1:100)	–	–
B2	–	binds	binds
